Laboratory results from the Human Domainome abundance scans (Beltran et al. 2025).

B1: Homeobox protein SIX6, residues 134 to 184; numbered along this chain, O95475 (parent)
chain: CFKERTRHLLREWYLQDPYPNPSKKRELAQATGLTPTQVGNWFKNRRQRDR

Variants of: B1
Assay: abundance fitness (aPCA) (normalised: wild type 0, dead -1); higher = more abundant; growth selection in yeast, the domain comes from the species named
Settings: Homo sapiens

Abundance fitness, by site and new letter:
Q48: V -0.315, G -0.237, W -0.079, C -0.125, D -0.221, Y 0.226, N 0.04, L -0.522, T -0.411, I -0.035, K 0.266, M -0.169, F -0.526, R 0.515, S -0.092, H 0.11, P -0.795, A -0.315
D50: M -0.417, N -0.693, F -0.585, V -0.881, R -0.777, K -0.474, Y -0.878, H -0.605, P -0.862, Q -0.189, G -0.607, I -0.995, C -0.73, W -0.592, T -0.153, S -0.312, E -0.26, L -1.1, A -0.383
R49: F -0.238, V -0.503, H -0.889, D -0.074, L -0.277, W -0.594, Q 0.143, N -0.287, C -0.376, I -0.482, G -0.357, T -0.213, K -0.203, A -0.278, E 0.049, S -0.334, M -0.489
F43: W -0.926, Y -1.13
K44: Y -0.604, S -0.282, T -0.398, L -0.525, P -0.957, W -0.634, I -0.37, V -0.543, R -0.112, C -0.361, A -0.195, M -0.204, D -0.57, Q -0.271, G -0.68, E -0.009, F -0.438
R51: M -0.499, V -0.545, S -0.646, A -0.353, T -0.529, C -0.691, W -0.832, E -0.094, K -0.133, D -0.25
